# Where two headings read alike, the source gives them in different places. Positions of bridges follow the written chain, without caps; N, C: chain ends. Residues, ends and D or L forms follow the SMILES beside them. No end group written: not given here.
# B1: Table 1 peptide 6, CLLKMRSAC (SEQ ID NO:26) (peptide)
# peptide: CLLKMRSAC
# modifications: disulfide 1-9
# B2: Table 1 peptide 3, CVLRMRSAC (SEQ ID NO:23) (peptide)
# peptide: CVLRMRSAC
# modifications: disulfide 1-9
# B3: Table 1 peptide 5, CLVRMRSAC (SEQ ID NO:25) (peptide)
# peptide: CLVRMRSAC
# modifications: disulfide 1-9
# B4: Table 1 peptide 12, CLARMRSIC (SEQ ID NO:32) (peptide)
# peptide: CLARMRSIC
# modifications: disulfide 1-9
# B5: Table 1 peptide 15, CLLRMRAIC (SEQ ID NO:35) (peptide)
# peptide: CLLRMRAIC
# modifications: disulfide 1-9
# B6: Table 1 peptide 4, CLIRMRSAC (SEQ ID NO:24) (peptide)
# peptide: CLIRMRSAC
# modifications: disulfide 1-9
# B7: Table 1 peptide 11, CALRMRSIC (SEQ ID NO:31) (peptide)
# peptide: CALRMRSIC
# modifications: disulfide 1-9
# B8: Table 1 peptide 14, CLLRMASIC (SEQ ID NO:34) (peptide)
# peptide: CLLRMASIC
# modifications: disulfide 1-9
# B9: Table 7 peptide 10, CILKMRSVC (SEQ ID NO:10) (peptide)
# peptide: CILKMRSVC
# modifications: disulfide 1-9
# B10: Table 1 peptide 10, CLLRMRSIC (SEQ ID NO:30) (peptide)
# peptide: CLLRMRSIC
# modifications: disulfide 1-9
# B11: Table 1 peptide 16, CILKMKSAC (SEQ ID NO:36) (peptide)
# peptide: CILKMKSAC
# modifications: disulfide 1-9
# B12: Table 7 peptide 2, CASKMRSAC (SEQ ID NO:2) (peptide)
# peptide: CASKMRSAC
# modifications: disulfide 1-9
# B13: Table 1 peptide 8, CLLRMRSLC (SEQ ID NO:28) (peptide)
# peptide: CLLRMRSLC
# modifications: disulfide 1-9
# B14: Table 1 peptide 1, CLLRMRSAC (SEQ ID NO:21) (peptide)
# peptide: CLLRMRSAC
# modifications: disulfide 1-9
# B15: Table 1 peptide 9, CLLRMRSVC (SEQ ID NO:29) (peptide)
# peptide: CLLRMRSVC
# modifications: disulfide 1-9
# B16: Table 1 peptide 7, CLLRMKSAC (SEQ ID NO:27) (peptide)
# peptide: CLLRMKSAC
# modifications: disulfide 1-9
# What was measured:
# ICAM-1/LFA-1 = biological target: T1, ICAM-1/LFA-1 (Homo sapiens, UniProt P05362); assay: cellular aggregation blocking assay (LFA-1/ICAM-1 dependent cell aggregation); type: cell-based
# T1 construct: endogenous in cells
# T1 sequence (P05362 28-532): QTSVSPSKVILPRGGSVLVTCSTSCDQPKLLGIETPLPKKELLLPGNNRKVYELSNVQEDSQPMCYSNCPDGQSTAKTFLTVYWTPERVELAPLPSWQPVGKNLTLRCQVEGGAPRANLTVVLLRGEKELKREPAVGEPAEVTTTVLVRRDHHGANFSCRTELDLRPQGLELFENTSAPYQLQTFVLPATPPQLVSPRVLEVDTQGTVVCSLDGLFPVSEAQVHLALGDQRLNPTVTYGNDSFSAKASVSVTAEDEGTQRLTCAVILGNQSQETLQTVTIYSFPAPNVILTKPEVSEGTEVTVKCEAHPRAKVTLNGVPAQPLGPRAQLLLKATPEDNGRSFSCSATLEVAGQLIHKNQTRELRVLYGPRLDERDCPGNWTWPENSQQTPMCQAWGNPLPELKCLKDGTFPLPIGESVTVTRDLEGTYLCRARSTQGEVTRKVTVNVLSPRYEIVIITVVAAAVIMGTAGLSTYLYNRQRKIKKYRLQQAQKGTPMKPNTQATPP
# Description: The inhibitory compound tested was a cyclic peptide containing nine amino acids that bind to ICAM-1, thereby inhibiting LFA-1/ICAM-1 binding. Using alanine replacement and homologous amino acid substitutions, we identified residues strategic to the antagonist activity were identified. A small set of such derived peptides was used as a training set for the inverse-QSAR. The activity or potency of the peptides is associated with an IC50 value, which measures the concentration that leads to half-maximal inhibition of receptor to ligand. Table 1, below, lists the amino acid sequence of sixteen such derived peptides with their IC50 values (given in μM), determined using a cellular aggregation blocking assay (J. Shannon, D. C. Brown, M. Silva, R. S. Larson, A cyclic peptide inhibits LFA-1/ICAM-1 mediated cell aggregation, J. Pept. Res. (2001) 1-14, L. Sillerud, E. Burks, D. C. Brown, R. S. Larson, NMR-derived solution model of potent ICAM-1 inhibitory peptide, J. Pept. 62 (2003) 97-116).
# In brief, the aggregation of a cell line dependent on LFA-1 binding to ICAM-1 was used to measure the inhibitory capacity of each peptide. Inhibitory peptides and cells were seeded in flat-bottomed microtiter plates and allowed to aggregate. The number of aggregates and total number of free (single) cells were counted using inverted phase microscopy. The percent aggregation, P, was determined as P=100(1−F/I) (1) where F is the final number of free cells and I is the initial number of free cells. This percent aggregation was then used to calculate the percent inhibition, Pi as follows Pi=100(1−Pip/Pc) (2) where Pip is the percent aggregation with inhibitory peptide and Pc is the percent aggregation in the control experiment. The IC50 values were calculated from a line fit to the percent inhibition data as a function of inhibitory peptide concentration over the range from 10 μM to 1 mM. Each condition was performed in duplicate while each experiment was performed a minimum of three times.
# [1] = biological target: T2, intercellular adhesion molecule-1 (ICAM-1) (human, UniProt P05362 28-532); assay: cell-based or functional assay
# T2 sequence (P05362 28-532): as above
# [2] = biological target: T2, intercellular adhesion molecule-1 …; assay: cell-based or functional assay; remark: listed apart in the source
# [3] = Table 1, class by experimental IC50, read-out: Inhibitor strength
Molecule,"Experimental IC50 (µM), cellular aggregation blocking assay [1] [µM]",further results
CC[C@H](C)[C@@H]1NC(=O)[C@H](CC(C)C)NC(=O)[C@@H](N)CSSC[C@@H](C(=O)O)NC(=O)[C@H](C)NC(=O)[C@H](CO)NC(=O)[C@H](CCCNC(=N)N)NC(=O)[C@H](CCSC)NC(=O)[C@H](CCCNC(=N)N)NC1=O [Peptide 4] (H-CLIRMRSAC-OH; disulfide 1-9),–,"IC50 (ICAM-1/LFA-1; [3]): 500 to 1000 µM; IC50 (ICAM-1/LFA-1; Table 1, peptide 10 μM to 1 mM, inhibition of cell aggregation, read-out: Experimental IC50): 720 µM"
CC[C@H](C)[C@@H]1NC(=O)[C@@H](N)CSSC[C@@H](C(=O)O)NC(=O)[C@H](C)NC(=O)[C@H](CO)NC(=O)[C@H](CCCCN)NC(=O)[C@H](CCSC)NC(=O)[C@H](CCCCN)NC(=O)[C@H](CC(C)C)NC1=O [Peptide 16] (H-CILKMKSAC-OH; disulfide 1-9),–,"IC50 (ICAM-1/LFA-1; [3]): ≤ 500 µM; IC50 (ICAM-1/LFA-1; strongest inhibitor in the training set, read-out: IC50 value): 40 µM"
B1,105,–
B2,> 1000,–
B3,> 1000,–
B4,> 1000,–
B5,710,–
B6,720,–
B7,> 1000,–
B8,> 1000,–
B9,–,"Actual IC50 value (µm), cellular assays [2]: 28 µM"
B10,580,–
B11,40,–
B12,–,"Actual IC50 value (µm), cellular assays [2]: 23 µM"
B13,> 1000,–
B14,480,–
B15,700,–
B16,90,–
